Laboratory results reported in US20110020361A1.

Target: cell surface-associated mesothelin (UniProt Q13421)
Assay: flow cytometry titration of IgG1 m912 on H9 cells, medium fluorescent units

- 50% binding: 5 to 10 nM
Substance: IgG1 m912 (antibody)
